# Reference: patent US20050203007A1 (REGENTS OF THE UNIVERSITY OF MICHIGAN, published 2005)
# B1: R4R1-eglin (designed binder)
# chain: SMGSELKSFPEVVGKTVDQAREYFTLHYPQYDVYFLPEGSRVTRDLRYNRVRVFYNPGTNVVNHVPHVG
# notes: N-terminal Met removed; also called Tyr49-R4R1-; D33Y49
# Key:
# [1] = molecular target: T1, secreted, soluble furin (human, UniProt P09958 108-715, limits assumed); assay: equilibrium enzyme inhibition, fluorogenic substrate
# T1 construct: Secreted, soluble construct; also called human furin
# [2] = molecular target: T2, secreted, soluble Kex2 (Saccharomyces cerevisiae, UniProt P13134 114-613, limits assumed); assay: as above
# T2 construct: Secreted, soluble construct; also called kexin
# T2 sequence (looked up): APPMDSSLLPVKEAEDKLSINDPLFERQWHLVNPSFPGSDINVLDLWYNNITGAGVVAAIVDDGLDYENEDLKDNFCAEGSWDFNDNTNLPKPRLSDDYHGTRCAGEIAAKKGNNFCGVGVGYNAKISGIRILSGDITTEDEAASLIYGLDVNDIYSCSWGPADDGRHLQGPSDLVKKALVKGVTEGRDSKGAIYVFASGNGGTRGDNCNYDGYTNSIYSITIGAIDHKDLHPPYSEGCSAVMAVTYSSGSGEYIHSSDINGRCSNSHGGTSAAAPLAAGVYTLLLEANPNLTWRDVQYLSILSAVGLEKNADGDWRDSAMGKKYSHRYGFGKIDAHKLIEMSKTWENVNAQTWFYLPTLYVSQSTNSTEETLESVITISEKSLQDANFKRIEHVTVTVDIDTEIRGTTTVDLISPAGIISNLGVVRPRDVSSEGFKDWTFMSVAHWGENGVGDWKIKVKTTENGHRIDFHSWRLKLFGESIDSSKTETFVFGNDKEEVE
# [3] = molecular target: T1, secreted, soluble furin; assay: equilibrium enzyme inhibition
# [4] = molecular target: T2, secreted, soluble Kex2; assay: equilibrium enzyme inhibition
# [5] = molecular target: T1, secreted, soluble furin; assay: enzyme inhibition, purified variant
# Experimental: (§1) Affinities of eglin variants with secreted, soluble Kex2 (hereafter “Kex2”; Brenner, C. and Fuller, R. S. (1992) Proc. Natl. Acad. Sci. USA 89: 922-926) and secreted, soluble furin (hereafter, “furin”; Bravo, D. A. et al (1994) J. Biol. Chem. 269: 25830-25837; and Komiyama & Fuller (2000) Biochemistry 39: 15156-15165) were measured by incubating variants with the enzymes (˜0.5 to 2.0 nM) for 45 min to 1 h at 21° C. in one of two enzyme assay buffers. For Kex2, the buffer was 200 mM Bistris (pH 7.27) containing 1 mM CaCl₂ and 0.1% Triton X-100; and for furin, the buffer was 20 mM NaMES (pH 7.0) containing 1 mM CaCl₂ and 0.1% Triton X-100 for furin. 100 to 200 μL aliquots of reaction mixtures were transferred into triplicate wells of opaque 96 well plates (Costar), and residual enzyme activity was measured with an fmax fluorescence micro plate reader (Molecular Devices) by monitoring hydrolysis of a fluorogenic substrate Boc-Arg-Val-Arg-Arg-MCA. Data were graphically analyzed (KaleidaGraph) with an equation developed by Green and Work (1953). Site-directed mutagenesis at P2 and P6 of eglin c generated temporary inhibitors (Table 3) and exhausted possibility to improve affinity further with this approach.
# [6] = molecular target: T2, secreted, soluble Kex2; assay: enzyme inhibition, purified variant
# Experimental: as §1
# [7] = molecular target: T3, subtilisin Carlsberg (UniProt P00780 106-379); assay: enzyme inhibition
# T3 sequence (looked up): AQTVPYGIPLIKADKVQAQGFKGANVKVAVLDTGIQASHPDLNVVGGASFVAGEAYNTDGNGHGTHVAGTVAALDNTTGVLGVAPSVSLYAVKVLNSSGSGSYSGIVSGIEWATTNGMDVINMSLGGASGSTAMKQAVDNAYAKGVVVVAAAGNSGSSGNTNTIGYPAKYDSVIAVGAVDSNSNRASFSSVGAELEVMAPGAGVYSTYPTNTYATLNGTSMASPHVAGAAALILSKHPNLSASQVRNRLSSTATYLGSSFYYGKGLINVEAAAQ
# [8] = molecular target: T1, secreted, soluble furin; assay: calculated from kon (progress curves) and Ka
# Experimental: (§2) In some aspects of the present invention, biological application of the eglin c variants of the present invention as inhibitors of processing in vivo depends upon the rate of binding to target enzymes, where it is critical. Therefore, the rate of action of eglin variants with Kex2 and furin was examined by incubating 5×10⁻¹⁰ M enzyme with inhibitor at molar ratios of inhibitor to enzyme ranging from 10 to 80. […] The relationship between kobs and inhibitor concentration was linear. The values of kₒₙ were determined from the slope of such curves, and dissociation rate constants (koff) were calculated (koff=kₒₙ/Kₐ). For R4R1-eglin, koff was calculated to be 2×10⁻⁴s⁻¹ for Kex2, and 3×10⁻⁴s⁻¹ for furin. […] Similarly, the t_{1/2} of the complex of M4R1-eglin with Kex2 was estimated to be 3 h. For complex of R4K1-eglin with furin, koff was calculated to be 2×10⁻⁴s⁻¹ implying that the koff and t_{1/2} for this complex are similar to those for the complex of R4R1-eglin with furin.
# [9] = molecular target: T2, secreted, soluble Kex2; assay: calculated from kon (progress curves) and Ka
# Experimental: as §2
# T1 sequence (P09958 108-715 limits assumed): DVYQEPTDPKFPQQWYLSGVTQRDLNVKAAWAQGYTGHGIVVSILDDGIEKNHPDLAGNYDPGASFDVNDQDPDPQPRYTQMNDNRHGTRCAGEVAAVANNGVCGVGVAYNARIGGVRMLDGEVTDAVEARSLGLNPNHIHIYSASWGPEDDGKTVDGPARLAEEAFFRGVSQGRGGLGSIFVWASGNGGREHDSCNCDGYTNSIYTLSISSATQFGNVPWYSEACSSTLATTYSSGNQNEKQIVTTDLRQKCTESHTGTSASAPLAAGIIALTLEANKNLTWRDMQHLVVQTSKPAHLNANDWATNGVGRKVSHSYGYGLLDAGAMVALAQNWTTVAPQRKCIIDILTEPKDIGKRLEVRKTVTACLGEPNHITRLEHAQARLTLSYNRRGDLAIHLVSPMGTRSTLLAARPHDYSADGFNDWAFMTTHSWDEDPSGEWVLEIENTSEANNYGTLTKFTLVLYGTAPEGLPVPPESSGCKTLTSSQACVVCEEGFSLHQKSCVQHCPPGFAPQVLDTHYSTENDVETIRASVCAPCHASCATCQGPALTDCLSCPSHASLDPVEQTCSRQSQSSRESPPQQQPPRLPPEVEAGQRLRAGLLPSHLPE
binder,measurement,setting,value
B1,Ki,[1],2.5 nM
same,Ki,[2],0.91 nM
same,fold higher affinity than L1-eglin,[3],46000 fold
same,fold increase in affinity relative to M4R1-eglin,[3],1430 fold
same,fold decrease in affinity relative to M4R1-eglin,[4],2.5 fold
same,fold stronger binding by Kex2 than by furin,[4],~3 fold
same,Ki,[5],2.5 nM
same,Ki ratio (to R4R1- template),[5],1
same,Ki,[6],0.91 nM
same,Ki ratio (to R4R1- template),[6],1
same,Ka,[7],6.5e+08 M⁻¹
same,koff,[8],0.0003 s⁻¹
same,koff,[9],0.0002 s⁻¹
